Measured values from patent publication US20150361176A1 (GlaxoSmithKline, published 2015).
Numbering of substitutions follows the chain as printed.

Legend:
[1] = target: T1, human TGF-βRII on cells (SBE-bla HEK 293T cells; A549 cells) (human, UniProt P37173 23-567); experiment: cell-based or functional assay
[2] = target: T2, mouse TGF-βRII on MC3T3-E1 cells (mouse osteoblasts) (mouse, UniProt Q62312 24-567); experiment: cell-based or functional assay
T2 sequence (looked up): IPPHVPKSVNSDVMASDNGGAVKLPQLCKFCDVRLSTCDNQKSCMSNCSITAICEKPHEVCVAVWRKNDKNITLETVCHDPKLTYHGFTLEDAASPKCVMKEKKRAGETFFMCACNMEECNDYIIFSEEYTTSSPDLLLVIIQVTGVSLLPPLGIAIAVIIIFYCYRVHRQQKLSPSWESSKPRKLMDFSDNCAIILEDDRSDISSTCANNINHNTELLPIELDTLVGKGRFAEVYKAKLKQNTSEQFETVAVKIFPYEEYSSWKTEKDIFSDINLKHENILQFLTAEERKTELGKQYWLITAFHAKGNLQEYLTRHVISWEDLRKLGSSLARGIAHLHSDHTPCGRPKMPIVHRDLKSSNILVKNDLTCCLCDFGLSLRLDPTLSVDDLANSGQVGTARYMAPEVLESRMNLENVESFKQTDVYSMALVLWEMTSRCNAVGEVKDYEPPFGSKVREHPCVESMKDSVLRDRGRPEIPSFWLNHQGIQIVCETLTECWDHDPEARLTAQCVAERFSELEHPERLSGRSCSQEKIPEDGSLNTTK

[3] = target: T3, recombinant human TGF-β RII/Fc chimera protein (human, UniProt P37173 24-159); experiment: SPR Biacore, human TGFbRII-FC, 1:1 model
T3 construct: range 24-159; Made in HEK-F cells; Biotinylated where it was put on SA chips, otherwise captured by anti-human IgG; also called human TGFbRII/Fc; hRII-Fc; not shown: Fc region of human IgG1

[4] = target: T3, recombinant human TGF-β RII/Fc chimera …; experiment: SPR Biacore
[5] = target: T4, cynomolgus TGF-β RII/Fc (cynomolgus); experiment: SPR Biacore
T4 construct: extracellular domain; also called Cyno TGFBRII; Cyno TGFbRII

[6] = target: T1, human TGF-βRII on cells (SBE-bla HEK …); experiment: cell-based or functional assay; remark: listed apart in the source
[7] = target: T2, mouse TGF-βRII on MC3T3-E1 cells (mouse …); experiment: cell-based or functional assay; remark: listed apart in the source
[8] = target: T1, human TGF-βRII on cells (SBE-bla HEK …); experiment: cell-based or functional assay; remark: listed apart in the source
[9] = target: T1, human TGF-βRII on cells (SBE-bla HEK …); experiment: cell-based or functional assay; remark: listed apart in the source
[10] = target: T3, recombinant human TGF-β RII/Fc chimera …; experiment: SPR Biacore, purified dAb; antigen taken as human TGF-β RII/Fc
[11] = target: T3, recombinant human TGF-β RII/Fc chimera …; experiment: SPR Biacore, against parent DOM23h-843
[12] = target: T3, recombinant human TGF-β RII/Fc chimera …; experiment: SPR Biacore, against parent DOM23h-855
[13] = target: T3, recombinant human TGF-β RII/Fc chimera …; experiment: SPR Biacore, against parent DOM23h-439

T3 sequence (P37173 24-159 limits assumed, stated change not applied): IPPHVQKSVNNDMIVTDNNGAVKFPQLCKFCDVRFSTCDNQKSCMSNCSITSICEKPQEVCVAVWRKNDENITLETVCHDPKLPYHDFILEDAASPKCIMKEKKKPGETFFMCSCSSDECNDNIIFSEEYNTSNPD
T1 sequence (P37173 23-567): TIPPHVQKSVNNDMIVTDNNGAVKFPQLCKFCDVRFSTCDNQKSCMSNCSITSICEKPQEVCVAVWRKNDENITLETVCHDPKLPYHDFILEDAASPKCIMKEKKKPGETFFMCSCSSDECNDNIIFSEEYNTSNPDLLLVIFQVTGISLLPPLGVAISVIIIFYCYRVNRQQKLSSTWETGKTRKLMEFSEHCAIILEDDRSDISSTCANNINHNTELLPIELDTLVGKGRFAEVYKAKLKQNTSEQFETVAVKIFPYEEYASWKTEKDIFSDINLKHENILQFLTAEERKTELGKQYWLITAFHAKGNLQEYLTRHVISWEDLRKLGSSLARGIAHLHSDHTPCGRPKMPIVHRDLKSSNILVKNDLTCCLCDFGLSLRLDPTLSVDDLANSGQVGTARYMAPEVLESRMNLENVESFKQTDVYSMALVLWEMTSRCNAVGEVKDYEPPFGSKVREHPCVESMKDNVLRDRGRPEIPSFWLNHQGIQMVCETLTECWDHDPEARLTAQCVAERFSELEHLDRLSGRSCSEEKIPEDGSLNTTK

B1: DOM23h-352 (VHH, not shown: small tags and cut ends)
VHH: EVQLLESGGGLVQPGGSLRLSCAASGFTFDKYKMAWVRQAPGKGLEWVSLIFPNGVPTYYANSVKGRFTISRDNSKNTLYLQMNSLRAEDTAVYYCAKYSGQGRDFDYWGQGTLVTVSS
[1]
  max % inhibition, Average (SBE-bla HEK CELLSENSOR assay, h2): 46.7%
[2]
  max % inhibition, Average (Mouse 3T3 cell assay, method m2): 48%

B2: DOM23m-62 (VHH, not shown: small tags and cut ends)
VHH: EVQLLESGGGLVQPGGSLRLSCAASGFTFGQESMYWVRQAPGKGLEWVSAISGSGGSTYYADSVKGRFTISRDNSKNTLYLQMNSLRAEDTAVYYCAKSGTRIKQGFDYWGQGTLVTVSS
[1]
  max % inhibition, Average (Human IL-11 release, h1): 79%
[2]
  max % inhibition, Average (Mouse 3T3 cell assay, method m1): 78.6%

B3: DOM23m-72 (VHH, not shown: small tags and cut ends)
VHH: EVQLLESGGGLVQPGGSLRLSCAASGFTFMDYDMSWVRQAPGKGLEWVSMIREDGGKTYYADSVKGRFTISRDNSKNTLYLQMNSLRAEDTAVYYCAKARVPYRRGHRDNFDYWGQGTLVTVSS
[1]
  max % inhibition, Average (Human IL-11 release, h1): 1.7%
[2]
  max % inhibition, Average (Mouse 3T3 cell assay, method m1): 17.5%

B4: DOM23h-271-21 (VHH)
VHH: EVQLLESGGGLVQPGGSLRLSCAASGFTFTEYRMWWVRQAPGKGLEWVSAIEPIGNRTYYADSVKGRFTISRDNSKNTLYLQMNSLRAEDTAVYYCAKQMPGRKWTAKFRWDYWGQGTLVIVSS
notes: human VH dAb from DNA display; expressed from pDOM13
[3]
  Kd: 0.147 nM
  koff: 0.000472 s⁻¹
  kon: 3.21e+06 M⁻¹ s⁻¹

B5: DOM23h-271-22 (VHH)
VHH: B4 VHH with R103Q, T106M, F109S, W111F, I121T
notes: as for B4
[3]
  Kd: 0.286 nM
  koff: 0.000919 s⁻¹
  kon: 3.22e+06 M⁻¹ s⁻¹
[4]
  Kd: 0.202 nM
[5]
  Kd: 0.225 nM
[6]
  Human Cell sensor IC50: 39 nM
[7]
  Mouse 3T3 Luciferase assay IC50: > 17.8 µM

B6: DOM23h-271-27 (VHH)
VHH: B4 VHH with N56Q, R57K, M100I, K108N, F109S, W111F
notes: as for B4
[3]
  Kd: 0.578 nM
  koff: 0.00126 s⁻¹
  kon: 2.17e+06 M⁻¹ s⁻¹

B7: DOM23h-843 (VHH)
VHH: EVQLLESGGGLVQPGGSLRLSCAASGFTFDQDRMWWVRQAPGKGLEWVSAIESGGHRTYYADSVKGRFTISRDNSKNTLYLQMNSLRAEDTAVYYCAKQNESGRSGFDYWGQGTLVTVSS
notes: human VH domain antibody (dAb), naive lead; parent of DOM23h-843-13; not shown: C-terminal FLAG tag from vector pDOM10
[8]
  Mean IC50 (nM), SBE-bla HEK 293T Cell Sensor assay (h2): 1950 nM
[9]
  IC50 nM, Mean (SBE-bla HEK 293T cell sensor assay, h2): > 9010 nM
[10]
  Kd: 378 nM
  koff: 0.343 s⁻¹
  kon: 905000 M⁻¹ s⁻¹

B8: DOM23h-843-13 (VHH)
VHH: B7 VHH with K98N, E101K
notes: human VH dAb, error-prone matured; expressed from pDOM13, tag not described
[11]
  KD Fold improvement: 91.7 fold
  ka Fold improvement: 5.6 fold
  kd Fold improvement: 16.2 fold
[8]
  Mean IC50 (nM), SBE-bla HEK 293T Cell Sensor assay (h2): 540 nM
[10]
  Kd: 4.13 nM
  koff: 0.0211 s⁻¹
  kon: 5.11e+06 M⁻¹ s⁻¹

B9: DOM23h-855 (VHH)
VHH: EVQLLESGGGLVQPGGSLRLSCAASGFTFENTSMGWVRQAPGKGLEWVSRIDPKGSHTYYADSVKGRFTISRDNSKNTLYLQMNSLRAEDTAVYYCAKQRELGKSHFDYWGQGTLVTVSS
notes: human VH domain antibody (dAb), naive lead; parent of DOM23h-855-21; not shown: C-terminal FLAG tag from vector pDOM10
[8]
  Mean IC50 (nM), SBE-bla HEK 293T Cell Sensor assay (h2): > 25000 nM
[9]
  IC50 nM, Mean (SBE-bla HEK 293T cell sensor assay, h2): > 4470 nM
[10]
  Kd: 941 nM
  koff: 0.315 s⁻¹
  kon: 335000 M⁻¹ s⁻¹

B10: DOM23h-855-21 (VHH)
VHH: B9 VHH with A61T, H106Y
notes: as for B8
[12]
  KD Fold improvement: 52.3 fold
  ka Fold improvement: 5.6 fold
  kd Fold improvement: 9.4 fold
[8]
  Mean IC50 (nM), SBE-bla HEK 293T Cell Sensor assay (h2): 18600 nM
[10]
  Kd: 18 nM
  koff: 0.0336 s⁻¹
  kon: 1.86e+06 M⁻¹ s⁻¹

B11: DOM23m-4 (VHH, not shown: small tags and cut ends)
VHH: EVQLLESGGGLVQPGGSLRLSCAASGFTFTTYGMGWVRQAPGKGLEWVSWIEKTGNKTYYADSVKGRFTISRDNSKNTLYLQMNSLRAEDTAVYYCAKAGRHIKVRSRDFDYWGQGTLVTVSS
[1]
  max % inhibition, Average (Human IL-11 release, h1): 70.7%
  max % inhibition, Average (SBE-bla HEK CELLSENSOR assay, h2): 69%
[2]
  max % inhibition, Average (Mouse 3T3 cell assay, method m1): 73.3%

B12: DOM23h-439 (VHH)
VHH: EVQLLESGGGLVQPGGSLRLSCAASGFTFGTEQMWWVRQAPGKGLEWVSRIDSPGGRTYYADSVKGRFTISRDNSKNTLYLQMNSLRAEDTAVYYCAKRHAAGVSGTYFDYWGQGTLVTVSS
[8]
  Mean IC50 (nM), SBE-bla HEK 293T Cell Sensor assay (h2): 3570 nM
[10]
  Kd: 24.2 nM
  koff: 0.0502 s⁻¹
  kon: 2.08e+06 M⁻¹ s⁻¹

B13: DOM23h-439-20 (VHH)
VHH: B12 VHH with W47F
notes: as for B8
[8]
  Mean IC50 (nM), SBE-bla HEK 293T Cell Sensor assay (h2): 48 nM
[13]
  KD Fold improvement: 30.3 fold
  ka Fold improvement: 2.1 fold
  kd Fold improvement: 14.2 fold
[10]
  Kd: 0.799 nM
  koff: 0.00354 s⁻¹
  kon: 4.43e+06 M⁻¹ s⁻¹

B14: DOM23m-71 (VHH, not shown: small tags and cut ends)
VHH: EVQLLESGGGLVQPGGSLRLSCAASGFTFMDYRMYWVRQAPGKGLEWVSGIDPTGLRTYYADSVKGRFTISRDNSKNTLYLQMNSLRAEDTAVYYCAKIKWGEMGSYKTFDYWGQGTLVTVSS
[1]
  max % inhibition, Average (Human IL-11 release, h1): -2%
[2]
  max % inhibition, Average (Mouse 3T3 cell assay, method m1): 44.9%

B15: DOM23m-32 (VHH, not shown: small tags and cut ends)
VHH: EVQLLESGGGLVQPGGSLRLSCAASGFTFFEYPMGWVRQAPGKGLEWVSVISGDGQRTYYADSVKGRFTISRDNSKNTLYLQMNSLRAEDTAVYYCAKSHTGTVRHLETFDYWGQGTLVTVSS
[2]
  max % inhibition, Average (Mouse 3T3 cell assay, method m1): 39.7%

B16: DOM23m-101 (VHH, not shown: small tags and cut ends)
VHH: EVQLLESGGGLVQPGGSLRLSCAASGFTFSEYDMAWVRQAPGKGLEWVSRIRSDGVRTYYADSVKGRFTISRDNSKNTLYLQMNSLRAEDTAVYYCAKDRAKNGWFDYWGQGTLVTVSS
[1]
  max % inhibition, Average (SBE-bla HEK CELLSENSOR assay, h2): 59.8%
[2]
  max % inhibition, Average (Mouse 3T3 cell assay, method m2): 48%
